# Results taken from the RNAGym collection of RNA variant scans (doi:10.1073/pnas.2313332121).
# B1: TPR t1 (parent)
# chain: GACCAAUCUGCCCUCAGAGCUCGAGAACAUCUUCGGAUGCAGAGGAGGCAGGCUUCGGUGGCGCGAUAGCGCCAACGUCCUCAACCUCCAAUGCAUCCCACCACAUGAUGAUGCCUGAAGAGCCUUGGUUUUUUG
# Variants of: B1
# Experiment: polymerase ribozyme fitness, log enrichment relative to wild type (log ratio); higher = more active; in vitro selection for triplet polymerase activity
# Outline: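 Each subunit of a heterodimeric triplet polymerase ribozyme was represented by a PCR-built, transcribed mutant library that underwent triplicate single-round in vitro selection with frozen incubation at −7 °C. Extended constructs were recovered by gel excision, streptavidin-bead capture and RT-PCR, and Illumina sequencing of input and output libraries kept genotypes with ≥10 input reads and ≥1 read per output. Fitness is the logarithm of genotype enrichment relative to wild-type enrichment, from inverse-variance-weighted replicate averages, with a logarithm base of 2.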
row,Variant,polymerase ribozyme fitness (log ratio)
1,A43C C115U,-3.33
2,G44U U92A,-3.67
3,A43G C73G U78A A111G,-3.33
4,A43G C56U C79G A111G,-5.35
5,G44U G71A U130G,-3.31
6,G42U U106A,-1.56
7,A43G G110A,-3.34
8,G44U A46U C70U,-3.55
9,G42U G63A C89U,-3.28
10,G45A C89U,-1.44
11,A43C C56U,-2.57
12,G44C C62G U132A,-2.39
13,A43U G60A G120C,-1.01
14,G44U G52A,-0.705
15,G44C G51U G60U C123U,-2.6
16,G44U C73U G113C A121G G128A,-4.53
17,G44A C89U C123U C124U,1.33
18,G44A A121C U125G,0.065
19,G44U G117U,-3.54
20,G44C G57U G63U,-2.08
21,G44A C56U C72U G120C U129C,-2.55
22,G44U C62A C101G,-4.35
23,A43G C53A,-2.39
24,G44C A91G,-1.82

row,Variant,polymerase ribozyme fitness (log ratio)
1,A43G C53A C89G C97G C123G,-5.57
2,G44A G45C,-3.88
3,G44A A50G C72A C73U G110A,-4.26
4,G45A A74G C115G G127C,-4.14
5,A43U C123A G128C,-2.79
6,G44U C56U U87C,-1.16
7,G44A C82A,-1.69
8,A43C C70U C82A A91U G93U U96C C124G,-3.67
9,A43U C99A C101G G110A,-7.09
10,G45A C79A G113U A118G,-7.04
11,G44U G45U G60C C101U A121G U131C,-0.695
12,G45A C70A C115A,-0.928
13,A43G U92C,-3
14,A43U G120A G127A U129C,-3.11
15,G44A G51A C104U C115G A121C C124A,-5.73
16,A43G G48U C114U,-2.07
17,G44U C98U U125G G127U,-3.43
18,G44C C70G,-3.8
19,G44C C86G,-1.54
20,A43C C56A U59A C72U,-3.55
21,G45C G51U G71C,-4.44
22,A43U G110C,-5.24
23,A43G G61A G65U,-5.48
24,A43C C76U C98U G117U,-7.18

row,Variant,polymerase ribozyme fitness (log ratio)
1,A43U C56A C115U,-2.52
2,G44C C72A,-0.169
3,G44C C114A,-2.01
4,G45C A50U,-2.42
5,G45C G48C,-2.05
6,A43U U55A C72A G127A,-2.75
7,G42U G69C G120U,-3.45
8,A43G C124A,0.39
9,G42U U59A G69U,-0.413
10,G44C G52A G127A,-3.02
11,A43U G44A C76G A111C,-2.36
12,A43C G48U U54A G77U G120A G135A,-2.07
13,A43U G48U G120U,-2.2
14,G45C C82A C101U,-2.68
15,A43U G63C G117C,-4.52
16,G45A C101A,-1.74
17,A43U G60C C82G,-4.23
18,A43U A74C,-1.55
19,G45C C115U,-3.17
20,G45A G69U U78C U112C U129A,0.415
21,A43C C49G A84G C115U G135U,-6.22
22,G42U G71A,-2.43
23,A43C U112A G127C,-2.51
24,G45A U106A A111G,-1.55

row,Variant,polymerase ribozyme fitness (log ratio)
1,A43C G71U C80U G110A G113U,-7.29
2,G42U U87C C123A U131C,-0.903
3,G44A G71C U125A U129C,-4.8
4,G45A A108G,-2.36
5,G44U C70A U129A U131A,-3.71
6,A43U U132A,-1.08
7,A43U A46U A105U C124G,-4.04
8,G44A C86A C89U C115G C123A,-2.79
9,G44A C72A G117A,-2.9
10,G44U G120U,-0.505
11,G44C A46C U54A C88G C97U G113C,-3.49
12,G45C C49G U59G C89U,-3.44
13,G44C C49A C101G U112G U131G,-4.71
14,A43U C49U U59C C70U C115U,-5.6
15,G44C G47C C49U C97A C123U,-6.09
16,G44A G52U,-2.04
17,G44A C101U,-1.1
18,G44A C101A,-2.48
19,G45A G52C C72A C123G,0.812
20,A43C G47U G69U,-1.43
21,G44A C72U G93U C97U U131A,-2.85
22,G42U G69A,-5.35
23,G42U U54G C76U A111G,-2.36
24,G45C C99U,-4.05

row,Variant,polymerase ribozyme fitness (log ratio)
1,G44U C73G C102U C124G,-1.03
2,G44C C56U C88U C101U G110U,-3.38
3,G44C G47C G63C C89U U132A,-4.25
4,G44C G69A U116C C123U,-5.92
5,G44C G61C U78C C98A G113U,-7.8
6,A43U G60A,-1.98
7,G44U G52C C82G G113A C124U,-3.3
8,G45A G63C C82U,-0.994
9,G45A G60A G110C,-4.86
10,G44A A121G,1.53
11,A43U G117U,-3.35
12,G44U G61U A111U,-3.66
13,A43U G44A G61C A84C A90U C102U C123U,-4.59
14,G44C C53U C56U C115U G117U G135A,-3.91
15,G44C G71U A108U G110C U125A,-6.18
16,G44A G71A,-2.54
17,G44U A95C,-2.44
18,G44C C64U A111G U133A,-0.585
19,G44A U78C,-1.33
20,G44U C70A C73U,-2.95
21,G45A U87C C97A,-3.81
22,A43G G44U A46U U133A,-2.67
23,G44A C49A C76A U106A,-3.36
24,A43U A46U G71U U125A U129A,-4.93

row,Variant,polymerase ribozyme fitness (log ratio)
1,G44U A91C G93A,-1.99
2,A43C U55C U130G,-2.82
3,G42U G135U,-1.66
4,A43G G60A C79U G93A,-2.95
5,A43U A50C G77A U126C,-3.5
6,A43U C49U G61A G113C C123U,-3.66
7,G44U C123A,0.184
8,G45A A111C,-0.541
9,A43U A46U U106A U131A,-2.17
10,G44A A119U,-0.987
11,A43U G48A G71U U112A,-1.51
12,G45A G51U G58U A74U C80A,-0.751
13,A43U U87A G110A,-4.16
14,A43G C49U U59G C114U,-2.13
15,G45A A95C A111U,-3.67
16,A43U C73U C86U U125G,-2.65
17,G45A A46G A50C C89A,-3.72
18,A43U U112C A119U,-0.989
19,A43C U112A G113C,-1.28
20,G45A A50G G52A G61U U131G,-3.62
21,G45C C56A C98U,-3.15
22,A43G C86U A91U C101U U131A,-1.79
23,G44A G52C G58A G120A,-1.3
24,A43G U78A C88U U109G,-7.02

row,Variant,polymerase ribozyme fitness (log ratio)
1,A43C U112G,-2.77
2,G44A G47U U78C G110A,-3.74
3,G45C A100G G120C,-3.59
4,A43C G69C,-4.47
5,G45C C56G C89A,-2.69
6,A43U C62U G77A U126A,-5.02
7,G45A G93U,-1.91
8,G45A G93C,-1.29
9,A43G G120U,-1.47
10,G45A A103C U106A C115G,-5.5
11,A43C U78A C82A,-3.68
12,G45A C73A U133G,-0.489
13,A43G C49A,-2.37
14,A43C A74G C101A A111G,-3.37
15,A43U G45C C49U G61U G120A,-1.99
16,A43C C62G G120A,-4.98
17,A43G A50U G71U,-5.61
18,G44U G48A C86U U92A,-4.3
19,G44A G47U C94A,-2.96
20,A43U C115U,-1.87
21,G44C C53U C86A A95U C101U,-3.19
22,A43U C49G,-3.61
23,G44C C53G,-1.05
